Experiment: soluble on expression in E. coli; label from the status in PepcDB or PDB records
For “MQEKQHIHIGEIIQRLSGRKLPQPLIRLLERLIHQDEINDILDRYGHLEGVDFMTALVGYFHVDIDWNGADRLPSDKRCLFVSNHPLGGLDGICLSHLIGSHYDSDVRYIVNDILFHLRPLRKIFVPVNTRGRQKRESIDRLQEALESDLPVITFPAGFCSRLIEGKVQDTPWKKSFVRQAYASKRDIVPLFFDGLNSKRFYRIERLRQLLGLKFNIGMALLPDEMFRSKGRHFRVFAGRPIPWQSLASAPRDTAEQALHIRSLVYDLSPSALKK”, the “soluble on expression in E. coli” value was “not soluble”. For “MQEPQARIAALLRDADDILITTHANPDGDAIGSLGAMGHVLATLGKRFCLCNVSGVPSHLSWVPLPGQVYTSFDELPFQPRLAIVLDCGDEKRPGEALRAPLADLPSINIDHHQGNPLFGTVDNWVEPQRAATGEMVAEIALALGQPLAGALGECLYLALVSDTGSFSFGNTSARVLSLAAEIVGNGLDVAALTERHDNQWSFARMQLWGRLMQEMRLAFDGTVAISVIPDALIESCGARRADLEGWASQMRKVRGVRVSVMVRGNGPEGSKVSLRSTGSDDVRAVAARFGGGGHRNAAGVEMPLPPEEASRQVVAALGEQLGLDGDGASLYVLEHHHHHH”, the “soluble on expression in E. coli” value was “soluble”. For “MQEVKQWPVKIMLVHPKAPFLKGEKIVIAADCAVLVNRDIRDRFESDAVIIGCPMLEDPRRMFERIKMIVAESDAKLEVYTMEVPCCHALHLMVEKAKEEHGKQTESEKYIVRVSGAVEPYSKKIDESMIEAERRAHRGH”, the “soluble on expression in E. coli” value was “not soluble”. With “MQFFDGYHYHGTTFEQSYRCYPASFIDKPQLESGDKIIMPPSALDRLASLHIDYPMLFELRNAGIERVTHCGVLEFIAEEGMIYMPYWMMQNLLLQEGDIVRVRNVTLPKGTYVKLQPHTTDFLDISNPKAILETALRNYSCLTSGDSIMVPYNNKKYFIDIVETKPANAISIIETDCEVDFAPPLDYKEPERPTAPSAAKGPAKAEEVVDEPEPKFNPFTGSGRRLDGRPLAYEPAPASSSKGKQPVVANGNGQSSVASSSEKATRAQGKLVFGANGNRAPKEAAPKVGAAKETKKEEQEKKDEPKFQAFSGKKYSLRG” the “soluble on expression in E. coli” value was “soluble”. In the case of “MQFLSIGVNDDADSLKEYLINELARNNKKNINYLVRDVADSEGSTSIICSLADNDAPSDMNSHLYKELVLNVSNALATFIIDKYEEKLIYRIINSNYCYFTQAERKEIQRLTLAIIKNEERNLLNSFFQIRRKNIIIKRLLEYFESSNTVILDGFVNFRLKDYMKDLEEIVEKAVDDFLMEREYREFIRLLRYFVDIQEPKFNAVHIIAGYDNKYVLLDENKNEITNECLQEFVNDIPEGEINYDDLLVSSLITMAPRKLVIHGAKSFRNKELLETIKNVFWGKVVICSECELCMVNMVRSENKSQI”, the “soluble on expression in E. coli” value is reported as “not soluble”. For “MQFSYVNPTMIHFGQGQIASIRRDIPKDHKVLVLYGGGSIKRNGVYDQVVEALSEHQWVEFSGVEPNPTKETLDKAVHIVKNQHIDFILAVGGGSVIDGSKYVAAAAFYEGDGWDILTGQHTVKQATPIGAILTLPATGSESNTGAVITKAETQDKLAFLSPAVQPRFAVLDPDVMKSLPERQLVNGLVDAWVHVCEQYLTLPTQAMVQEGYAEVLLRNLLALGADFVNRDNDAWRANLMWTANQALNGLIGTGVPQDWATHMIGHELTALWHVDHARSLAIVQPWLLRNQLKHKKAKLEQMGKNVFGLPQSDDLAEKTIAAIEAFYHQLNVATQFGEHGMAKEAAVDAVLQQLTAHGMHKLGEQGTIDLQESRKILENALY”, the “soluble on expression in E. coli” value was “not soluble”. For “MQGDPDVLRLLNEQLTSELTAINQYFLHSKMQDNWGFTELAAHTRAESFDEMRHAEEITDRILLLDGLPNYQRIGSLRIGQTLREQFEADLAIEYDVLNRLKPGIVMCREKQDTTSAVLLEKIVADEEEHIDYLETQLELMDKLGEELYSAQCVSRPPT”, the “soluble on expression in E. coli” value was “not soluble”. In the case of “MQGQGDLFESTDWQEVRQGKLFYQPNFLSQQEADTYFSTLMSTLPWQQERITIFGKSVLQPRLQTWHGDAPYTYSGLTMAPHPWTSELSSLKARCESLANTPFNSVLANLYRDGQDSMGWHQDNEPELGRNPVIASLNLGDTRRFVLRNLHCKTQIEYELGHGALLIMAGELQHHWRHCVPKTAKPKGERINLTFRHILNYLEHHHHHH”, the “soluble on expression in E. coli” value is reported as “soluble”. In the case of “MQINGKAPRNKDLEPHSFELWLNAAKTNLDKYEMALIITATLGLRRGEVMGLRNESIKISHDQINDADVAQISIDMQRNTNELNGGPLKTKSSYRTIWAFGKTVDHLKYAMITADNLRQRNNIQAEKHWLWLNNDGNPLHPTHLNRLMRRVSNRSGVEVYPHLLRHYFATQAIAANKPQIDVMHYLGHKNLQMTADYTRSTKAASLNVFNSIDKFLLEHHHHHH”, the “soluble on expression in E. coli” value is reported as “soluble”. In the case of “MQITQGQRIPLSTLIQGNDLTLSIVIKSAHVIDYVCFGVDANGKLSDDRYMIFFNQPTSPCNSVKQANGGDFQLALDSLPASIDRLVFTASIDGAGVMSDIQASHFSIQHQGREVARGEFSGATFAAEKAIMVADIYRKNGEWRIASNLQGYNAGLDALVGHFGGVADAPPAAPAAPARISLEKKIADAAPQLISLAKKAQVSLEKAKLTDTKARVGLVLDASGSMNPQYTRGHVQEVVDRLIPLAVHFDDDGALDCWAFGAKPQQLNAITLKNFQNFIKTDHGGWKDWELGSRINDEPKAMRMVIDYYKKSGDKTPVYILFISDGGVHQDREITKLMIEAAKLPIFWQFVGLGGRGYGILEKLDDMGGRVVDNCNFFALDRLDEVPEEKLYDLLMEEFPDWLNAAKGAGIL”, the “soluble on expression in E. coli” value is reported as “not soluble”. In the case of “MQIWHMEPFPCGDRRLPHHVFPPKKITTTQLGQLAGVQYYKVDLDDTASMKKRLSAVKTEKNVTFTDMFTVSETMLEFDDKMEQFYEPQVQKEDVISLVVEGTCYYDVEPEDDSWIRVQVEKGDLIVIPKGLSHRFTTTPQNFVKIQRFFSRKVEGNQG”, the “soluble on expression in E. coli” value is reported as “not soluble”. With “MQKPKLGKIKLLSAKEQVAAVLRKAILSRELVEGQEITLEGIAGMVGVSSMPVREAFQILAADGLIKVRPNKGAVVLGINEQTIREHYEIRALLESEAVAKASRPGSDISRIAQVHYAAEKALAENNSAEYSDLNQAFHMEIWNVAGNEKMKMLLCNMWNGLSMGHKVTEEEYAVISIQEHKSILQALELHDETLARQRMREHIIRSMENMLTRYVGDPSA” the “soluble on expression in E. coli” value was “not soluble”. In the case of “MQKQKSFDKQTTKGKLYLVPTPIGNLEDMSIRCLNILKEATVIASEDTRNTQKLLNHFEITTPQISLHEHNYKERIPQLITRLLNGETIAQVSDAGMPSISDPGHELVTACLEEELAVIALPGPTAGMTALIASGLLPQPFTFYGFLPRKKKEQKDVLSALKEERPTQIFYESPYRIAKTVATFAEVYGQERPAVICRELTKLHEEYLRGTLGELTEYLAENTLKGECCLLVSGFTGEKETIAAMPAISLKEHVQVLMEEEGRSSKEAIKEVAKLRNVKKQEVYKEYHSI”, the “soluble on expression in E. coli” value is reported as “not soluble”. For “MQKSIDDMINEVLAVKVEKLPKTQDFSDLQEVCASKLQIINKEMDEADRKLEETLEKRKLVEKQLEDLQEQYKVKEFAFSLQKEFQDELKKVAEEIF”, the “soluble on expression in E. coli” value was “not soluble”. With “MQKTIYDVSFINGEVKTFTPLMLDNVMAEKELVARGGNIRENSIEFMAILTHKVCRRTYRENTPLDLDIFLESVLDIDTRVEEVTTFPEQNLDAHGPEPRHRT” the “soluble on expression in E. coli” value was “not soluble”. With “MQLALVLSELGEYQVSNQWLLKIIHDLDETMYDCLYFLANNYACLGLFREATQYAEQYLTCESDGEFADDAADLLELLKLDRHDVSEEQEQLITMQERARHLLEQERFAEAIEALEAIVSRYPEFWSAHNNLALAYFYNGDVERAKQKLLEVLKRDPGNLHALCNALVFAYYLHDQEEVAALCETLASVYPFFREHQYKLGATFALVGRFDSAFRWLYRLYKNGFDGDGPFYYWLAYSAYHIGHESLARQVWETLTTLHPEKRGELEHHHHHH” the “soluble on expression in E. coli” value was “not soluble”. In the case of “MQLTESLGIVLFNRNYREDDKLVKIFTEVAGKQMFFVKHISRSKMSSIIQPLTIADFIFKLNDTGLSYVVDYSNVNTYRYINNDIFRLAYASYVLALADAAIADNESDSHLFTFLKKTLDLMEEGLDYEILTNIFEIQILDRFGISLNFHECAICHRTDLPLDFSHRFSAVLCSEHYYKDNRRNHLDPNVIYLLSRFQKITFDDLRTISLNKDIKKKLRQFIDELYHDYVGIKLKSKTFIDNLVKWGDIMK”, the “soluble on expression in E. coli” value is reported as “not soluble”. With “MQLTPLQQAKPEKEEISPYAINNILSSTQSSPDNGNEADDKENSSVRRNTFPASSASTKKPRGTPYDRTNTPMTVVPQMPQFAPDFSNYNLTMNAWSEFFKKDRCMVCGDNSTGYHYGVQSCEGCKGFFRRSVHKNIAYVCTKGENCTFSYENCAANRGVRTRCQACRFAKCLAVGMNRDNVRVNKETDKDVKPSVASPNFEMTSQVKELTAAFVANMPCSTHLTSGTHAIGAIKKFIESVPALSSLLPKDEKALEMSIQKVMSGILAIRAAFTFDPITFYSCENPVNLLRGGIRNTVFNDCEVALLSGIHILQIVNGGVAEIFTSYCQGLRHQLSQTHLQEIGLCDRLLMRLGPYLNQ” the “soluble on expression in E. coli” value was “not soluble”. For “MQMLDRLESEILADRVSEESRRWLASCGLTVEQMKNQMDPVYTPARKIHLYHCDHRGLPLALISTEGATAWCAEYDEWGNLLSDENPHHLQQLIRLPGQQYDEESGLYYNRHRYYDPLLGRYITQDPIGLKGGWNFYQYPLNPVINVDPQGLVDINLYPESDLIHSVADEINIPGVFTIGGHGTPTSIESATRSIMTAKDLAYLIKFDGNYKDGMTVWLFSCNTGKGQNSFAS”, the “soluble on expression in E. coli” value was “soluble”. In the case of “MQPDNYFILAQKPITEPSASVMGQVKNDVKKEEPKNEEKKPGDENKNPAAVGAEGAGAAEKPQDKSQKPFPEIKMPTESMKKKKNTDNEIDKRKKMKTGFYQEKSDEDDTLEKIESLKVEQSDKTKKSQKKKLTLENGEKKV”, the “soluble on expression in E. coli” value is reported as “not soluble”. For “MQPQKNVTNKIAIHATTATVWDALVNPAKTKVYMFGCETVSDWKVGSELLWRGQHEGEDMVFVKGKILAIKPNKLLTYTVIDPFASYPDIPENYLNVTYKLEEQGPDTILTVTQDGFESAADGEKRYQDVNNKGEGWNPILVQIKALVESIQNLEHHHHHH”, the “soluble on expression in E. coli” value was “soluble”. With “MQPQSVLHSGYLHPLLRAWQTATTTLNASNLIYPIFVTDVPDDIQPITSLPGVARYGVKRLEEMLRPLVEEGLRCVLIFGVPSRVPKDERGSAADSEESPAIEAIHLLRKTFPNLLVACDVCLCPYTSHGHCGLLSENGAFRAEESRQRLAEVALAYAKAGCQVVAPSDMMDGRVEAIKEALMAHGLGNRVSVMSYSAKFASCFYGPFRDAAKSSPAFGDRRCYQLPPGARGLALRAVDRDVREGADMLMVKPGMPYLDIVREVKDKHPDLPLAVYHVSGEFAMLWHGAQAGAFDLKAAVLEAMTAFRRAGADIIITYYTPQLLQWLKEE” the “soluble on expression in E. coli” value was “soluble”. With “MQPTETSQPAPSDQGRRLKDQLSESMSFSSQMKKEDDELSMKALSAFKAKEEEIEKKKMEIRERVQAQLGRVEDESKRLAMIREELEGFADPMRKEVTMVRKKIDSLDKELKPLGNTVQKKETEYKDALEAFNEKNKEKVELITKLQEGESEKFRFKKLEELSKNIDLTKP” the “soluble on expression in E. coli” value was “not soluble”. In the case of “MQQYAQRDKKHEYWFAVPQERTDHLYAFFIQWSPEIYAEDTGEYTREPGFIVVKKIEESETIEDSSNQAAAREWEITTREDINSKQVATVKADLESESFRPNLSDPSELLLPDQIEKLTKHLPPRTIGYPWTLVYGTGKHGTSLKTLYRTMTGLDTPVLMVIKDSDGQVFGALASEPLKVSDGFYGTGETFVFTFCPEFEVFKWTGDDMFFIKGDMDSLAFGGGGGEFALWLDGDLYHGRSHSCKTFGNRTLSKKEDFFIQDIEIWAFELEHHHHHH”, the “soluble on expression in E. coli” value is reported as “not soluble”. For “MQRFLDSISAATQAKSPAEHETLVAMADLYAIITCVEYLERAWRANAVSDEDYTRNCSRLIAQFRATRQLVMDDVPSVISFLEEYHLAARAAMNRLQVGVPATVEHANSSDETRRRNFTAAAIQATEAFLTFRDALELGERSVDRLLPYLREILLVLGRMGAVFGTADGDATVQRERIVQWVRRLDAMHAYEQITEEDKRQLAHDVDTLYDTFRRRVGELEM”, the “soluble on expression in E. coli” value was “not soluble”.
